Legend:
Experiment in all cases: holdup assay
Parameters in all cases: key: below the threshold = too weak to quantify, mostly under pKd 3.1 to 4
APBA1_1, Q02410 = target: T1, APBA1_1, Q02410
T1 sequence (Q02410 651-752, limits assumed, looked up): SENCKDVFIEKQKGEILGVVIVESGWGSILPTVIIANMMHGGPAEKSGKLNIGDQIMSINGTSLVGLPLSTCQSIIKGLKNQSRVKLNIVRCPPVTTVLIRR

DLG1_1, Q12959 = target: DLG1_1, Q12959
DLG2_3, Q15700 = target: DLG2_3, Q15700
DLG4_1, P78352 = target: DLG4_1, P78352
DLG4_3, P78352 = target: DLG4_3, P78352
DLG4_3, P78352, sequence (P78352 306-403): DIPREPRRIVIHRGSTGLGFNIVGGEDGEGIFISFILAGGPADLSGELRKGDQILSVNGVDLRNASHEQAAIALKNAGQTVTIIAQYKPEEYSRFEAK

FRMPD2_1, Q68DX3 = target: FRMPD2_1, Q68DX3
FRMPD2_1, Q68DX3, sequence (Q68DX3 770-861): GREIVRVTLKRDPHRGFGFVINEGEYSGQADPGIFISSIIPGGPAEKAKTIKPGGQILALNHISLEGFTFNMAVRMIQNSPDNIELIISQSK

FRMPD3, Q5JV73 = target: FRMPD3, Q5JV73
FRMPD3, Q5JV73, sequence (Q5JV73 12-100): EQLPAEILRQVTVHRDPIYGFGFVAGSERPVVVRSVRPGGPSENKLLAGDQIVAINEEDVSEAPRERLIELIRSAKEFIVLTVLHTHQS

GRIP1_2, Q9Y3R0 = target: T2, GRIP1_2, Q9Y3R0
T2 sequence (Q9Y3R0 145-248, limits assumed, looked up): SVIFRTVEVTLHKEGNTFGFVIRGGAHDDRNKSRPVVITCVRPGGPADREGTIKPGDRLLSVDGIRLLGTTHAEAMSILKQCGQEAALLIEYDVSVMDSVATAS

GRIP2_3, Q9C0E4 = target: GRIP2_3, Q9C0E4
GRIP2_3, Q9C0E4, sequence (Q9C0E4 238-339): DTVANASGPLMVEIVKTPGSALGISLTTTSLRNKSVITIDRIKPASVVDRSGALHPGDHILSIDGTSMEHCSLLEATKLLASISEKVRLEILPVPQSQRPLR

GRIP2_7, Q9C0E4 = target: GRIP2_7, Q9C0E4
GRIP2_7, Q9C0E4, sequence (Q9C0E4 934-1023): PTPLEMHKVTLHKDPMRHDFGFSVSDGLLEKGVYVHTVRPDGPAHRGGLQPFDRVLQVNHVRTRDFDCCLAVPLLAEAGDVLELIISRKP

HTRA2, O43464 = target: HTRA2, O43464
HTRA2, O43464, sequence (O43464 355-458): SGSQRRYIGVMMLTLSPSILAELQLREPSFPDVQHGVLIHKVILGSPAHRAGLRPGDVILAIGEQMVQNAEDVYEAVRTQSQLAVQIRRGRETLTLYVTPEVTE

Inadl_1, Q8NI35 = target: Inadl_1, Q8NI35
Inadl_1, Q8NI35, sequence (Q8NI35 113-229): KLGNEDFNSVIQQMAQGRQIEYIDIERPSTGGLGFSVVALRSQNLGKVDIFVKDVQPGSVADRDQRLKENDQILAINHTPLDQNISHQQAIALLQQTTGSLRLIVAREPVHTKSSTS

LAP2, Q96RT1 = target: LAP2, Q96RT1
LAP2, Q96RT1, sequence (Q96RT1 other isoform, or with tags, fused parts or gaps): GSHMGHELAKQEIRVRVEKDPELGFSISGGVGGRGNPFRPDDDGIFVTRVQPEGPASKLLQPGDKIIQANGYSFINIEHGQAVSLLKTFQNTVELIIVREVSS

LNX1_2, Q8TBB1 = target: LNX1_2, Q8TBB1
LNX1_2, Q8TBB1, sequence (Q8TBB1 371-470): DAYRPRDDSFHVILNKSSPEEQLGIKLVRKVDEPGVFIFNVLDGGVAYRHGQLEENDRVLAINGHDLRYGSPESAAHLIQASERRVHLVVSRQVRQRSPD

LNX2_3, Q8N448 = target: T3, LNX2_3, Q8N448
T3 sequence (Q8N448 463-564, limits assumed, looked up): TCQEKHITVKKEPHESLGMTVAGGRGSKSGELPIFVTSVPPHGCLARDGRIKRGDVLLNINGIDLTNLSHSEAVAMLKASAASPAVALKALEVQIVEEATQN

MAGI2_2, Q86UL8 = target: MAGI2_2, Q86UL8
MAGI2_2, Q86UL8, sequence (Q86UL8 410-522): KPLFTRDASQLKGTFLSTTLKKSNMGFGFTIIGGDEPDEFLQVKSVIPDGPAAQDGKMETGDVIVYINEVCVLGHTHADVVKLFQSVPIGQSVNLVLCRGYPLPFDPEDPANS

MAST2, Q6P0Q8 = target: MAST2, Q6P0Q8
MAST2, Q6P0Q8, sequence (Q6P0Q8 1099-1202): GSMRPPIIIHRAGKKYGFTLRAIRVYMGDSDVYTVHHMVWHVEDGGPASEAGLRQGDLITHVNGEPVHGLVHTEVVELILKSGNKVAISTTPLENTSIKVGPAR

MPDZ_12, O75970 = target: T4, MPDZ_12, O75970
T4 sequence (O75970 1857-1958, limits assumed, looked up): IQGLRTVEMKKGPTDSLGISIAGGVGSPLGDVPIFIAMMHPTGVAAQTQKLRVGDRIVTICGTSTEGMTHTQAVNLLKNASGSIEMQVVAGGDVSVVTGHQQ

MPDZ_5, O75970 = target: T5, MPDZ_5, O75970
T5 sequence (O75970 695-796, limits assumed, looked up): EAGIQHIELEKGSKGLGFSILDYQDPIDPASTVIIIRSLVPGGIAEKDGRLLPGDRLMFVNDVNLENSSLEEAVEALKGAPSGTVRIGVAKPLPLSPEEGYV

NHERF4_1, Q86UT5-2 = target: NHERF4_1, Q86UT5-2
NHERF4_1, Q86UT5-2, sequence (Q86UT5 other isoform, or with tags, fused parts or gaps): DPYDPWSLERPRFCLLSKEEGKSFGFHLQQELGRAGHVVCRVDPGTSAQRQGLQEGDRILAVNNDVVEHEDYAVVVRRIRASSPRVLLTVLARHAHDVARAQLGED

NOS1, P29475 = target: NOS1, P29475
NOS1, P29475, sequence (P29475 9-101): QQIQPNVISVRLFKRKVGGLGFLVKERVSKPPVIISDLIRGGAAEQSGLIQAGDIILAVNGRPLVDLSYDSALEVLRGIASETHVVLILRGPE

PARD3_3, Q8TEW0 = target: PARD3_3, Q8TEW0
PARD3_3, Q8TEW0, sequence (Q8TEW0 582-685): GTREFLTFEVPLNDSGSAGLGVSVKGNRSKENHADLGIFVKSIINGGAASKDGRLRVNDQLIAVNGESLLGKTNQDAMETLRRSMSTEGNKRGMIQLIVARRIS

PDZD2_2, O15018 = target: T6, PDZD2_2, O15018
T6 sequence (O15018 329-429, limits assumed, looked up): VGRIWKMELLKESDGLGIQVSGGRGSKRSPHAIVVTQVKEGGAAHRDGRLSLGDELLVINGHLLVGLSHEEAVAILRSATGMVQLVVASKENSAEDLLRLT

PTPN13_1, Q12923 = target: T7, PTPN13_1, Q12923
T7 sequence (Q12923 1088-1188, limits assumed, looked up): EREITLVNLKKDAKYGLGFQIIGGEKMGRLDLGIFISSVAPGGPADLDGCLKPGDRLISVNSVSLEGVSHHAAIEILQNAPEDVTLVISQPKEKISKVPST

RAPGEF6, Q8TEU7 = target: T8, RAPGEF6, Q8TEU7
T8 sequence (Q8TEU7 525-625, limits assumed, looked up): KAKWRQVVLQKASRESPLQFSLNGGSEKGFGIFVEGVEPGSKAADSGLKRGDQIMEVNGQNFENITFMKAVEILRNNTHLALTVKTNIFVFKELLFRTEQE

RHPN1, Q8TCX5 = target: T9, RHPN1, Q8TCX5
T9 sequence (Q8TCX5 508-602, limits assumed, looked up): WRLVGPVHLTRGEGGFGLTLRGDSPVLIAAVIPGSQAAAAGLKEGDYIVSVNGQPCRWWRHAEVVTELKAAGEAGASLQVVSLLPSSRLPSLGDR

SNX27, Q96L92 = target: SNX27, Q96L92
TIAM2, Q8IVF5 = target: T10, TIAM2, Q8IVF5
T10 sequence (Q8IVF5 885-986, limits assumed, looked up): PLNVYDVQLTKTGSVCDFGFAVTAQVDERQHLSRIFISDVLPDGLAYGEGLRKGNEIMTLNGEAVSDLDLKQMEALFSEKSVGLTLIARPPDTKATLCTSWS

[1] = plain residues with an end cap or a label only (N-terminal biotin on a linker: ado-ado)
[2] = modified: phospho on T at position -2 from the C-terminal residue

DLG4_1, P78352, sequence (P78352 62-152): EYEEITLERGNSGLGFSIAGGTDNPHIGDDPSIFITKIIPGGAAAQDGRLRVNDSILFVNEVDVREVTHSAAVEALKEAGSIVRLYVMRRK

Binder: QLKSGRDSTV [TMEM178A, Q8NBL3]
- pKd (APBA1_1, Q02410; [1]): below the threshold
- pKd (DLG1_1, Q12959; [1]): 4.11
- pKd (DLG2_3, Q15700; [1]): below the threshold
- pKd (DLG4_1, P78352; [1]): 4.34
- pKd (DLG4_3, P78352; [1]): below the threshold
- pKd (FRMPD2_1, Q68DX3; [1]): below the threshold
- pKd (FRMPD3, Q5JV73; [1]): below the threshold
- pKd (GRIP1_2, Q9Y3R0; [1]): below the threshold
- pKd (GRIP2_3, Q9C0E4; [1]): 3.51
- pKd (GRIP2_7, Q9C0E4; [1]): 3.55
- pKd (HTRA2, O43464; [1]): 3.65
- pKd (Inadl_1, Q8NI35; [1]): below the threshold
- pKd (LAP2, Q96RT1; [1]): 3.63
- pKd (LNX1_2, Q8TBB1; [1]): 3.84
- pKd (LNX2_3, Q8N448; [1]): below the threshold
- pKd (MAGI2_2, Q86UL8; [1]): 4
- pKd (MAST2, Q6P0Q8; [1]): 4.08
- pKd (MPDZ_12, O75970; [1]): below the threshold
- pKd (MPDZ_5, O75970; [1]): 3.56
- pKd (NHERF4_1, Q86UT5-2; [1]): below the threshold
- pKd (NOS1, P29475; [1]): 3.52
- pKd (PARD3_3, Q8TEW0; [1]): 3.5
- pKd (PDZD2_2, O15018; [1]): 4.32
- pKd (PTPN13_1, Q12923; [1]): 3.57
- pKd (RAPGEF6, Q8TEU7; [1]): below the threshold
- pKd (RHPN1, Q8TCX5; [1]): 4.06
- pKd (SNX27, Q96L92; [1]): 4.01
- pKd (TIAM2, Q8IVF5; [1]): below the threshold

Binder: DLLGGGSDSI [TNRC6B, Q9UPQ9]
- pKd (APBA1_1, Q02410; [1]): below the threshold
- pKd (DLG1_1, Q12959; [1]): below the threshold
- pKd (DLG2_3, Q15700; [1]): 3.62
- pKd (DLG4_1, P78352; [1]): below the threshold
- pKd (DLG4_3, P78352; [1]): below the threshold
- pKd (FRMPD2_1, Q68DX3; [1]): below the threshold
- pKd (FRMPD3, Q5JV73; [1]): below the threshold
- pKd (GRIP1_2, Q9Y3R0; [1]): below the threshold
- pKd (GRIP2_3, Q9C0E4; [1]): below the threshold
- pKd (GRIP2_7, Q9C0E4; [1]): below the threshold
- pKd (HTRA2, O43464; [1]): below the threshold
- pKd (Inadl_1, Q8NI35; [1]): below the threshold
- pKd (LAP2, Q96RT1; [1]): below the threshold
- pKd (LNX1_2, Q8TBB1; [1]): below the threshold
- pKd (LNX2_3, Q8N448; [1]): below the threshold
- pKd (MAGI2_2, Q86UL8; [1]): below the threshold
- pKd (MAST2, Q6P0Q8; [1]): below the threshold
- pKd (MPDZ_12, O75970; [1]): 3.53
- pKd (MPDZ_5, O75970; [1]): below the threshold
- pKd (NHERF4_1, Q86UT5-2; [1]): 3.63
- pKd (NOS1, P29475; [1]): 3.9
- pKd (PARD3_3, Q8TEW0; [1]): below the threshold
- pKd (PDZD2_2, O15018; [1]): 3.68
- pKd (PTPN13_1, Q12923; [1]): below the threshold
- pKd (RAPGEF6, Q8TEU7; [1]): below the threshold
- pKd (RHPN1, Q8TCX5; [1]): 3.79
- pKd (SNX27, Q96L92; [1]): below the threshold
- pKd (TIAM2, Q8IVF5; [1]): 3.97

Binder: SRSRRRETAL [HPV33-E6_-2P, P06427]
- pKd (APBA1_1, Q02410; [2]): below the threshold
- pKd (DLG1_1, Q12959; [2]): below the threshold
- pKd (DLG2_3, Q15700; [2]): below the threshold
- pKd (DLG4_1, P78352; [2]): below the threshold
- pKd (DLG4_3, P78352; [2]): below the threshold
- pKd (FRMPD2_1, Q68DX3; [2]): below the threshold
- pKd (FRMPD3, Q5JV73; [2]): below the threshold
- pKd (GRIP1_2, Q9Y3R0; [2]): below the threshold
- pKd (GRIP2_3, Q9C0E4; [2]): below the threshold
- pKd (GRIP2_7, Q9C0E4; [2]): below the threshold
- pKd (HTRA2, O43464; [2]): below the threshold
- pKd (Inadl_1, Q8NI35; [2]): below the threshold
- pKd (LAP2, Q96RT1; [2]): below the threshold
- pKd (LNX1_2, Q8TBB1; [2]): below the threshold
- pKd (LNX2_3, Q8N448; [2]): below the threshold
- pKd (MAGI2_2, Q86UL8; [2]): below the threshold
- pKd (MAST2, Q6P0Q8; [2]): 3.62
- pKd (MPDZ_12, O75970; [2]): below the threshold
- pKd (MPDZ_5, O75970; [2]): below the threshold
- pKd (NHERF4_1, Q86UT5-2; [2]): 4.6
- pKd (NOS1, P29475; [2]): 3.75
- pKd (PARD3_3, Q8TEW0; [2]): below the threshold
- pKd (PDZD2_2, O15018; [2]): below the threshold
- pKd (PTPN13_1, Q12923; [2]): below the threshold
- pKd (RAPGEF6, Q8TEU7; [2]): below the threshold
- pKd (RHPN1, Q8TCX5; [2]): below the threshold
- pKd (SNX27, Q96L92; [2]): below the threshold
- pKd (TIAM2, Q8IVF5; [2]): below the threshold
